Data: publication PMC4112278

Key:
Experiment in all cases: SEC
[1] = target: HIV-1_(YU2) gp140 Env trimer (HIV-1 (isolate YU2))
[2] = target: SIV_(mac239) gp140 Env trimer (SIV_(mac239))
[3] = target: HIV-1_(UG37) gp140 Env trimer (HIV-1 (isolate UG37, clade A))
[4] = target: HIV-1_(NIBSC40-9) gp140 Env trimer (HIV-1 (isolate NIBSC 40-9, clade A))
[5] = target: HIV-1_(ITM1_4) gp140 Env trimer (HIV-1 (isolate ITM1_4, clade A))

## HIV-1_(YU2) gp140 Env trimer (domain or fragment)
[1]
  stoichiometry N: 3

## SIV_(mac239) gp140 Env trimer (domain or fragment)
[2]
  stoichiometry N: 3

## HIV-1_(UG37) gp140 Env trimer (domain or fragment)
[3]
  stoichiometry N: 3

## HIV-1_(NIBSC40-9) gp140 Env trimer (domain or fragment)
[4]
  stoichiometry N: 3

## HIV-1_(ITM1_4) gp140 Env trimer (domain or fragment)
[5]
  stoichiometry N: 3
